Values joined by “and” are separate entries in the source; they are usually repeats but may differ in a detail not shown here. Equal entries are not always repeated.

A short description of data set [1]: Stability (half-life) of native enzyme. It counts as physicochemical, Streptomyces clavuligerus. The text has this: The purified native enzyme obtained from cell-free extracts of S. clavuligerus can be partially stabilized by phenylmethylsulfonyl fluoride and ethanol.
A short description of data set [2]: Isoelectric points of purified enzyme. It counts as physicochemical, Streptomyces clavuligerus. Conditions: two distinct points.
For data set [3], the target named is T1, recombinantly produced DAOC synthase (Streptomyces clavuligerus, UniProt P18548).
T1 construct: made in house; host or cells: Escherichia coli K12 JM109 (plasmid pOW382)
Put plainly: Kinetics of recombinant enzyme (Lineweaver-Burk). It counts as biochemical. Particulars: pH 7.0, 50 mM HEPES buffer, 36° C. The protocol: The kinetics of the native enzyme and recombinant enzyme were determined under the optimal reaction conditions for the enzyme, i.e., at pH 7.0 in 50 mM HEPES buffer at 36° C.

B1: purified native enzyme: DAOC synthase obtained from cell-free extracts of S. clavuligerus (protein, UniProt P18548 1-311, looked up)
Deacetoxycephalosporin C …: MDTTVPTFSLAELQQGLHQDEFRRCLRDKGLFYLTDCGLTDTELKSAKDLVIDFFEHGSEAEKRAVTSPVPTMRRGFTGLESESTAQITNTGSYSDYSMCYSMGTADNLFPSGDFERIWTQYFDRQYTASRAVAREVLRATGTEPDGGVEAFLDCEPLLRFRYFPQVPEHRSAEEQPLRMAPHYDLSMVTLIQQTPCANGFVSLQAEVGGAFTDLPYRPDAVLVFCGAIATLVTGGQVKAPRHHVAAPRRDQIAGSSRTSSVFFLRPNADFTFSVPLARECGFDVSLDGETATFQDWIGGNYVNIRRTSKA
For the molecule B1, the half-life in data set [1] (not stabilized) is on record as 20 h; in data set [1] (stabilized by phenylmethylsulfonyl fluoride and ethanol) it was 48 h.

B2: purified enzyme: purified deacetoxycephalosporin C synthase of S. clavuligerus (protein, UniProt P18548 1-311, looked up)
Deacetoxycephalosporin C …: MDTTVPTFSLAELQQGLHQDEFRRCLRDKGLFYLTDCGLTDTELKSAKDLVIDFFEHGSEAEKRAVTSPVPTMRRGFTGLESESTAQITNTGSYSDYSMCYSMGTADNLFPSGDFERIWTQYFDRQYTASRAVAREVLRATGTEPDGGVEAFLDCEPLLRFRYFPQVPEHRSAEEQPLRMAPHYDLSMVTLIQQTPCANGFVSLQAEVGGAFTDLPYRPDAVLVFCGAIATLVTGGQVKAPRHHVAAPRRDQIAGSSRTSSVFFLRPNADFTFSVPLARECGFDVSLDGETATFQDWIGGNYVNIRRTSKA
Take B2: the isoelectric points in data set [2] was 5.3±0.2 and 6.1±0.2.

B3: recombinant synthase: S. clavuligerus DAOC synthase (expandase) produced in recombinant E. coli and purified (protein, UniProt P18548 1-311, looked up)
Deacetoxycephalosporin C …: MDTTVPTFSLAELQQGLHQDEFRRCLRDKGLFYLTDCGLTDTELKSAKDLVIDFFEHGSEAEKRAVTSPVPTMRRGFTGLESESTAQITNTGSYSDYSMCYSMGTADNLFPSGDFERIWTQYFDRQYTASRAVAREVLRATGTEPDGGVEAFLDCEPLLRFRYFPQVPEHRSAEEQPLRMAPHYDLSMVTLIQQTPCANGFVSLQAEVGGAFTDLPYRPDAVLVFCGAIATLVTGGQVKAPRHHVAAPRRDQIAGSSRTSSVFFLRPNADFTFSVPLARECGFDVSLDGETATFQDWIGGNYVNIRRTSKA
modifications: recombinant, expressed in E. coli
notes: S. clavuligerus DAOC synthase (expandase) produced in recombinant E. coli and purified
Turning to B3, the Vmax in data set [3] was 0.432 μmol DAOC formed/min/mg protein.

Source of the values: patent US5082772A, “Process for preparing deacetylcephalosporin C” (priority 1988, dated 1992).
